Reference: US8444970B2, “Compositions and methods for treating ocular diseases and conditions” (Lpath, Inc., priority 2006, dated 2013)

Columns and labels:
[1] = system: CNV lesions after laser-induced rupture of Bruch's membrane; test: Murine model of laser-induced CNV and scar formation (Example 4); type: in vivo, mouse; settings: 0.5 ug
Procedure: Female C57BL6/J mice were subjected to laser-induced rupture of Bruch's membrane and administered either 0.5 μg of Sphingomab or an isotype-matched non-specific (NS) antibody diluted in 2 μl of physiological saline. Mice were sacrificed 14 and 28 days after laser rupture.
To induce CNV lesions, the pupils were dilated with ophthalmic tropicamide (0.5%) and phenylephrine (2.5%). A coverslip was placed on the eye. An Oculight GL 532 nm (Iridex Corporation, Mountain View, Calif.) coupled to a slit lamp set to deliver a 100 msec pulse at 150 mW with a 50 μm spot size was used to rupture Bruch's membrane in three quadrants of the right eye located approximately 50 μm from the optic disc at relative 9, 12 and 3 o'clock positions. The left eye served as an uninjured control in all cases. Any lesion not associated with a vapor bubble or lesions that became confluent were excluded from analysis. […]
To assess collagen deposition, the sclera-choroid-RPE complex was stained with Masson's Trichrome. […] Approximately 30 sections per lesion were evaluated. Quantitation of the volume of collagen deposition was calculated in the same manner as described for CNV lesion volume.
Captured digital images were evaluated morphometrically using ImageJ software (Research Services Branch, National Institutes of Health, Bethesda, Md.).

[2] = system: neovascularization of VEGF- or bFGF-containing Matrigel plugs; test: In vivo Matrigel plug assay, bFGF- or VEGF-supplemented plugs, neovascularization; set-up: species or system mouse; settings: 25 mg/kg i.p. every 48 hrs, 10 days
Procedure: Endogenous S1P from the blood and surrounding tissue could supply a wound with pro-angiogenic stimuli. The ability of SPHINGOMAB to reduce endogenous S1P in a wound was investigated. Optimally stimulated plugs (Matrigel supplemented with 0.5 μg/mL bFGF or […] VEGF) were implanted into mice. Mice received i.p. injections of 25 mg/kg SPHINGOMAB or saline every 48 hrs starting 1 day prior to Matrigel implantation. Each treatment group (Matrigel, Matrigel plus GF or Matrigel plus GF and administered SPHINGOMAB) consisted of a minimum of 6 mice. After 10 days, the mice were treated with heparin, injected with Isolectin B4-FITC, the plugs excised, embedded in OCT freezing medium and sectioned.

[3] = Competitive ELISA for specificity / cross-reactivity to bioactive lipids; type: binding; settings: for recognition of ceramide-1-phosphate (C1P): competitor lipid C1P; for cross-reactivity to lysophosphatidic acid (LPA): competitor lipid LPA; for cross-reactivity with sphingosylphosphorylcholine (SPC): competitor lipid SPC
Procedure: Screening of serum and cell supernatant for S1P-specific antibodies was by direct ELISA using a thiolated S1P analog as the antigen. A standard ELISA was performed, as described below, except that 50 ul of sample (serum or cell supernatant) was diluted with an equal volume of PBS/0.1% Tween-20 (PBST) during the primary incubation. ELISAs were performed in 96-well high binding ELISA plates (Costar) coated with 0.1 μg of chemically-synthesized thiolated-S1P conjugated to BSA in binding buffer (33.6 mM Na2CO3, 100 mM NaHCO3; pH 9.5). The thiolated-S1P-BSA was incubated at 37° C. for 1 hr. at 4° C. overnight in the ELISA plate wells. The plates were then washed four times with PBS (137 mM NaCl, 2.68 mM KCl, 10.14 mM Na2HPO4, 1.76 mM KH2PO4; pH 7.4) and blocked with PBST for 1 hr. at room temperature. For the primary incubation step, 75 uL of the sample (containing the S1P to be measured), was incubated with 25 uL of 0.1 ug/mL anti-S1P mAb diluted in PBST and added to a well of the ELISA plate. Each sample was performed in triplicate wells. Following a 1 hr. incubation at room temperature, the ELISA plates were washed four times with PBS and incubated with 100 ul per well of 0.1 ug/mL HRP goat anti-mouse secondary (Jackson Immunoresearch) for 1 hr. at room temperature. Plates were then washed four times with PBS and exposed to tetramethylbenzidine (Sigma) for 1-10 minutes. The detection reaction was stopped by the addition of an equal volume of 1M H2SO4. Optical density of the samples was determined by measurement at 450 nm using an EL-X-800 ELISA plate reader (Bio-Tech).
For cross reactivity, a competitive ELISA was performed as described above, except for the following alterations. The primary incubation consisted of the competitor (S1P, SPH, LPA, etc.) and a biotin-conjugated anti-S1P mAb. Biotinylation of the purified monoclonal antibody was performed using the EZ-Link Sulfo-NHS-Biotinylation kit (Pierce). Biotin incorporation was determined as per kit protocol and ranged from 7 to 11 biotin molecules per antibody. The competitor was prepared as follows: lipid stocks were sonicated and dried under argon before reconstitution in DPBS/BSA [1 mg/ml fatty acid free BSA (Calbiochem) in DPBS (Invitrogen 14040-133)]. Purified anti-S1P mAb was diluted as necessary in PBS/0.5% Triton X-100. Competitor and antibody solutions were mixed together so to generate 3 parts competitor to 1 part antibody. A HRP-conjugated streptavidin secondary antibody (Jackson Immunoresearch) was used to generate signal.
i. Specificity. The humanized variants were tested for specificity in a competitive ELISA assay (FIG. 1) against S1P and several other biolipids. This assay has the added benefit to allow for epitope mapping.

B1: LT1002: murine anti-S1P monoclonal antibody, IgG1 kappa, hybridoma clone 306D326.26 (antibody, listed as Mus sp., V domains shown)
VH: QAHLQQSDAELVKPGASVKISCKVSGFIFIDHTIHWMKQRPEQGLEWIGCISPRHDITKYNEMFRGKATLTADKSSTTAYIQVNSLTFEDSAVYFCARGGFYGSTIWFDFWGQGTTLTVS
VL: ETTVTQSPASLSMAIGEKVTIRCITTTDIDDDMNWFQQKPGEPPNLLISEGNILRPGVPSRFSSSGYGTDFLFTIENMLSEDVADYYCLQSDNLPFTFGSGTKLEIK
[1]; 14 and 28 days after laser-induced rupture of Bruch's membrane
  choroidal neovascularization: dramatically attenuates
[1]; 28 days after laser-induced rupture
  fibrosis associated with CNV lesion formation: significantly reduces
[2]
  decrease in neovascularization of VEGF-containing plugs vs saline-treated animals: 5 fold
  decrease in neovascularization of bFGF-containing plugs vs saline-treated animals: 8.5 fold
[3]; In vitro activity, Table 7
  Specificity (ELISA): High
[3]; listed as SPHINGOMAB
  recognition of ceramide-1-phosphate (C1P): did not recognize
  cross-reactivity to lysophosphatidic acid (LPA): no cross-reactivity
  cross-reactivity with sphingosylphosphorylcholine (SPC): to a lesser extent
[3]; listed as anti-S1P mAb
  recognition of ceramide-1-phosphate (C1P): no antibody binding was observed
  cross-reactivity to lysophosphatidic acid (LPA): no binding
  cross-reactivity with sphingosylphosphorylcholine (SPC): somewhat reduced
[3]; competitor lipid DH-S1P
  cross-reactivity with dihydrosphingosine-1-phosphate (DH-S1P): did cross react
[3]; competitor lipid DH-SPH
  recognition of dihydrosphingosine (DH-SPH): did not recognize
[3]; competitor lipid PE
  recognition of phosphatidyl ethanolamine (PE): did not recognize
[3]; competitor lipid PS
  recognition of phosphatidyl serine (PS): did not recognize
[3]; competitor lipid SM
  recognition of sphingomyelin (SM): did not recognize
[3]; competitor lipid SPH
  cross-reactivity to sphingosine (SPH): no cross-reactivity
